The text below walks through data of the supplement of paper PMC12455559.

The nature of data set [1]: melting temperature (DSF); higher = more thermostable. An outline of the steps: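 Values are melting temperatures from differential scanning fluorimetry. Candidate enzymes were expressed in E. coli C41(DE3), purified on nickel beads and freed by SUMO protease cleavage. In sealed PCR plates on a Bio-Rad CFX96, 45 μL enzyme (0 to 0.3 mg/mL) was combined with 5 μL 5X Sypro Orange. Fluorescence was recorded from 25 °C for 250 cycles, rising 0.3 °C per cycle at a ramp of 0.3 °C/s.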

The nature of data set [2]: purified protein yield per well (BCA); higher = higher soluble expression. An outline of the steps: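 Candidate enzymes were expressed in E. coli C41(DE3) in 2 mL autoinduction cultures with 100 µg/mL kanamycin, at 37 °C for 2 h and then 18 °C for 40 h. Cells were lysed, and protein was bound to Ni-charged magnetic beads and released by SUMO protease cleavage on an OT-2 robot. The read-out is purified protein yield per well, measured with the Pierce Rapid Gold BCA kit. Values below 25 ug (0.1 mg/mL) are below the detection threshold.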

Data set [3] in a line: PET hydrolysis, aromatic products released after 48 h (umol product/mg enzyme); higher = more PET depolymerization activity. An outline of the steps: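 Reactions ran in sealed plates without shaking for 48 h at 40 or 60 °C. Each held 3.5 mg amorphous PET film or crystalline PET powder, 450 μL buffer and 5 μg (50 μL) of tagless, SUMO-cleaved, nickel-purified candidate enzyme. Buffers were 50 mM NaCitrate at pH 4.5 or 5.5, 50 mM NaPhosphate at pH 6.5 or 7.5, and glycine at pH 8.5. The supernatant's aromatic product, read at 260 and 280 nm against buffer blanks, gives PET hydrolysis activity per mg enzyme.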

The mark [4] stands for this setting: substrate: cryPow, 40 °C, pH 4.5.
[5] abbreviates: substrate: cryPow, 40 °C, pH 5.5.
[6] abbreviates: substrate: cryPow, 40 °C, pH 6.5.
The mark [7] stands for this setting: substrate: cryPow, 40 °C, pH 7.5.
Setting [8] is: substrate: cryPow, 60 °C, pH 4.5.
The mark [9] stands for this setting: substrate: cryPow, 60 °C, pH 5.5.
Where [10] appears, read: substrate: cryPow, 60 °C, pH 6.5.
The mark [11] stands for this setting: substrate: cryPow, 60 °C, pH 7.5.
Where [12] appears, read: substrate: aFilm, 40 °C, pH 4.5.
Where [13] appears, read: substrate: aFilm, 40 °C, pH 5.5.
[14] abbreviates: substrate: aFilm, 40 °C, pH 6.5.
The mark [15] stands for this setting: substrate: aFilm, 40 °C, pH 7.5.
Setting [16] is: substrate: aFilm, 60 °C, pH 4.5.
[17] abbreviates: substrate: aFilm, 60 °C, pH 5.5.
Setting [18] is: substrate: aFilm, 60 °C, pH 6.5.
Where [19] appears, read: substrate: aFilm, 60 °C, pH 7.5.

± gives the standard deviation of the averaged measurements.

In turn, “ADNPYQRGPDPTPAGVAASRGPFATAQTTVAPGNGFNGGTIYYPTDTSAGTWGAVAIVPGYTALFADEEAWMGPWLSSFGFVVIGIETNSRTDFDVARGTQLLAALDYLTQQSPVRDRVDTSRLSVIGHSMGGGGVVYATEHRPSLKAAVALAPFSPSQDMSTDRVPTMVMAGQNDTVVTPSYLDGLYATMPAATQSDFVQIAGADHVYYTHPQSTEMRILIPWLKIFVDNDTRYTQFLCPSLSDSSGISIYRSKCPYVPPGTSTTGGTTSGTTSGGTTTGGTTSGGTTTGGTTSGGTTSGGTSGSACTASYATVNTWSGGFQGEVTVTAGGKPVNGWTVRWTLAGGQGISQVWNGTVSTSGSDVSVRNVSYNGSLQPSTSTTFGFLGTGTPSDVSLSCTSP [ESM043]” registered a melting temperature in data set [1] of 37 C. Moreover, the “purified protein yield per well” value in data set [2] came out at 31.4 µg. Besides, the PET hydrolysis in data set [3] (setting [4]) was 4; in data set [3] (setting [5]), 11; in data set [3] (setting [6]), 5; in data set [3] (setting [7]), below 3.

Turning to “SNPAPDTGSGDGSSSQYQIGPDPTVSFLEASSGPFSVRTSNVSSLVSGFGGGTIHYPTGVNRPMAAIVVIPGFVSAESSIDWWGPKLASYGFVVMTIGTNSGFDQPPSRARQINNALDYLVAQNTNSRSPVNGMIDTNRLGAMGWSMGGGGTLRVAEEGRIKAAIPLAPWDTTSFRSNRTPTLIFACGSDSIAPVRTHASPFYNQIPTSTPKIFIEINRGNHYCANGGNSNNATLGRLGVAWMKRFLDEDRRYSQFLCGPRHTSDRNISESRDTCNF [ESM186]”, the melting temperature in data set [1] was 53.8 C. In addition, the “purified protein yield per well” value in data set [2] worked out at 43 µg. Further, the PET hydrolysis in data set [3] (setting [4]) was below 3; in data set [3] (setting [5]), below 3; in data set [3] (setting [6]), 3; in data set [3] (setting [7]), 13.

With “ADNPYQRGPDPTLASVAASRGTFATAQVNVPGGNGFASGVIYYPTDTTQGTFGAVAIVPGYSALFANEEAWMGPWLASFGFVVIGIETNSRTDSADARGTQLLAALDYLTQRSPVRDRVDPNRLSVVGHSAGGAGVLSAVVRRPSLKAAIGLAPGSPVGNYDLSTAKVPTMFISGQRDTTVTQSYLNGLYSTIPAALPSAWVEIAGVDHLFATRANNTEMRVLIPWLKIWLDNDTRYPQFLCPLMDSTNISMYRNKCPYVPPGGGPSPSPSATPSPSVTPSPSPSPSPSPSPSPSPTPTPGACTATYRTVNSWGGGYQGEVTVKAGASAVNGWTVRWTLNAGQTVSQVWNGTLSTSGSSVTVKNASYNGSLPPAGTTVFGFLANGTPATPALTCASP [ESM009]”, the melting temperature in data set [1] came out at 58.6 C. Further, the “purified protein yield per well” value in data set [2] stood at 358 µg. The PET hydrolysis in data set [3] (setting [4]), in data set [3] (setting [5]), in data set [3] (setting [6]), in data set [3] (setting [7]), in data set [3] (setting [8]) and in data set [3] (setting [9]) was below 3 each time. Besides, the PET hydrolysis in data set [3] (setting [10]) and in data set [3] (setting [11]) was below 3 throughout.

Turning to “ADNPYQRGPDPTRTSVAAVNGPFANTSVSVPTGYGFNGGRIYYPTDTSQGTFGAIAISPGYTALFSAELAWMGPWLASHGFVVIGIETNSRNDFDTARGTQLLAALDYLTQQSPVRDRVDPNRLAVSGHSMGGGGALSAAIRRSSLKAVVGIAPYSPSSNLANDRVPTMVFSGQADTVVTPSYATGLYNSLPATTESVYLEVAGADHGFMVGRSNPVMIRTMLPFVKMFIDNDTRYSQFLCPLLDSSGVVTYRSTCPLLPPAPTPSNTGTTPPTTPPVTPTTPPSSASEIVGVQSGRCIDVPNASRNNGTRVQLYDCNRQANQSWTYTSGKQLQVYGNMCLDAAGSGNGAAVQIYSCHSQTNQQWNVNSNGTISGVQSGRCLDVWSTANGAQIQLYDCHGGANQRFNLVPRT [ESM058]”, the melting temperature in data set [1] came out at 59.5 C. In addition, in data set [2], the “purified protein yield per well” value stood at 281 µg. The PET hydrolysis in data set [3] (setting [12]), in data set [3] (setting [13]), in data set [3] (setting [14]), in data set [3] (setting [15]), in data set [3] (setting [16]) and in data set [3] (setting [17]) was below 3 each time. Also, the PET hydrolysis in data set [3] (setting [18]) is below 3; in data set [3] (setting [19]), below 3; in data set [3] (setting [4]) it was 5.5 ± 0.71; in data set [3] (setting [5]) it was 12.5 ± 0.71; in data set [3] (setting [6]), 11; in data set [3] (setting [7]), 4.5 ± 0.71. The PET hydrolysis in data set [3] (setting [8]), in data set [3] (setting [9]), in data set [3] (setting [10]) and in data set [3] (setting [11]) was below 3 throughout.

Consider “ADNPYQRGPNPTRESVAASRGTFATAETSVGGGNGFAAAKIYYPTDTGQGKFGAIAVVPGYTATWAAEGAWMGHWLASFGFVVIGIDTLSRNDWDVARGTQLLAALDYLTQRSSVRDRVDATRLAVMGHSMGGGGAISAALRRPSLKTAIGNAPFSASQNLNNMQIPTALLAGQRDGTTTPSSISGYYNQIPAGVEKMYLELTGAGHGFPTSNNSVMTRKVIPWMKIFIDNDTRYHQFLCPLMDNTGISAYRSTCPLIPGDPTPPSDTYSLVGAASGKCADVEGVSQANGARLLLWTCNGQVNQRWTQTAAGELRVYDNPKCMDAGASAQGTRVTINACNGGNSQKWTVNANGTVTNAASGRCLDAGGTADNSPVVVNTCTGGSSQNWSKRS [TEP029]”, for which, in data set [1], the melting temperature was found to be 57.7 C. For the same sequence, the “purified protein yield per well” value in data set [2] came to 282 µg. Further, the PET hydrolysis in data set [3] (setting [12]), in data set [3] (setting [13]), in data set [3] (setting [14]), in data set [3] (setting [15]), in data set [3] (setting [16]) and in data set [3] (setting [17]) was below 3 in each case. Further, the PET hydrolysis is below 3 in data set [3] (setting [18]); below 3 in data set [3] (setting [19]); below 3 in data set [3] (setting [4]); below 3 in data set [3] (setting [5]); 14.5 ± 5 in data set [3] (setting [6]); 15.5 ± 0.71 in data set [3] (setting [7]). Further, the PET hydrolysis in data set [3] (setting [8]), in data set [3] (setting [9]), in data set [3] (setting [10]) and in data set [3] (setting [11]) was below 3 throughout.
